From patent US11091546B2, “Optimized PNE-based chimeric receptor T cell switches and uses thereof” (The Scripps Research Institute, priority 2015, dated 2021)
Several values for one entry are separate records, joined by “and”; a condition that tells them apart may be missing. Identical values can stand only once. Entries after “also recorded” stand apart in the source; their conditions may differ.

Tests used:
[1] = tested on: RS4;11 (CD19 positive); type: cell-based, human
Description: Activity was assessed against NALM-6 (CD19^+), RS4;11 (CD19^+), or RPMI-8226 (CD19^−) (Table 2). The activity of the IgG (FcNull) switch was assessed against RS4;11 (CD19^+), or K562 (CD19^−) (Table 2). The activity of the C-terminal switch was assessed against RS4;11 (CD19^+), or K562 (CD19^−) (Table 4).
(§1) sCAR-T cells were co-cultured (96-well plate round bottom; 20-24h; 37° C.; 5% CO2) with RS4;11 (CD19^+) or K562 (CD19^−) cells at a ratio of 10 sCAR-T cells to 1 RS4;11/K562 cell (110,000 cells in total) in 100 uL of RPMI-1640 supplemented with 5% heat inactivated fetal calf serum (Thermo), 1% penicillin-streptomycin (Gibco), 1% L-Glutamine (Gibco), 1 mM sodium pyruvate (Gibco) and 1% non-essential amino acids (Gibco). After 24 hours, each plate was centrifuged at 400×g for 5 minutes at 4° C. To measure target cell lysis, the intracellular protein lactate dehydrogenase (LDH) was measured in the cytotoxicity assay supernatants from the co-cultured cells using the CytoTox 96® Non-Radioactive Cytotoxicity Assay kit (Promega). To measure the effector responses of the sCART cells in vitro, cytokine levels were measured in the cytotoxicity assay supernatants using the Cytometric Bead Array (CBA) Human Th1/Th2 Cytokine Kit II (BD). […]
The GCN4 CAR design was therefore modified to contain the CD8 hinge region (used in CART-19), which has an extracellular CAR domain of approximately 80 Å, and an IgG4 hinge with an extracellular CAR domain of approximately 15-30 Å. An additional construct was developed where a mutation was introduced into the IgG4 hinge that allows for spontaneous disulphide bridge formation between receptor molecules (IgG4m). […] Briefly, activated PBMC were transduced with lentivirus (SEQ ID: 1) containing the anti-PNE CAR construct (SEQ ID: 180) with the CD8 (SEQ ID: 68), IgG4 (SEQ ID: 70) and IgG4m (SEQ ID: 71) hinge domains.
Monovalent and bivalent combinations of these switches were expressed in mammalian protein expression systems (HEK293 or CHO cells) and purified using protein-G columns. Switches were used in cytotoxicity assays at a dose titration within the range of 10 nM to 0.0001 nM. The activity of each switch combination was tested in vitro in the General cytotoxicity assays where LDH release, cytokine production and sCART cell activation were compared (FIGS. 11A-11C).
CAR-T or target cells were incubated with 1 pM to […] of switch in FACS buffer (PBS, 1% FCS, 2 mM EDTA) for 30 minutes at 4° C. before being washed twice and then incubated with the PE-conjugated goat-anti-human kappa antibody (1:100). Cells were washed two times and analyzed using the Accuri flow cytometer (BD). CAR-T cell activity was determined using the CytoTox 96® Non-Radioactive Cytotoxicity Assay (Promega). CAR-T cells were incubated with target cells in the presence of switch for 20-24 hours at 37° C. in complete RPMI with 5% FCS. At the end of the assay, 30 μL of cell free supernatant was added to 30 μL of the LDH assay reagent in a 96-well plate and incubated for 30 minutes at room temperature in the dark; 30 μL of stop solution was added before the plate was read at OD495.

[2] = tested on: Nalm-6^Luc/GFP cells; test: Nalm-6 Luc/GFP leukemia xenograft; type: in vivo; conditions: short-dimeric sCAR-T cells; 0.5 mg/kg every other day from day 6
Description: NSG mice were inoculated with CD19^+ Nalm-6^GFP/Luc cells. Six days later, 40×10^6 sCAR-T cells were delivered IV and switch dosing commenced every other day at 0.5 mg/kg for 10 days. Tumor burden was followed by luminescence after injection of luciferin and imaged on an in vivo imaging system (IVIS; PerkinElmer, Waltham, Mass., USA).
Asterisks indicate significance from LCNT Fab group. Data are represented as means±SEM, and statistical significance was calculated using the 2-way ANOVA with Bonferroni's post-test (B & E; shown for final time-point only) or by one-tailed student's t-test (C & F) where *=p<0.05, **=p<0.01 and ***=p<0.001.
NSG mice were inoculated with Nalm-6^GFP/Luc as described in FIG. 28. […] A fourth group consisted of two cohorts (n=3) of mice injected I.V. with sCAR-T cells without (−) LCNT Fab switch. LCNT Fab dosing in the indicated group was carried out daily at 0.5 mg/kg after the initial T cell infusion. Luminescence was measured at 6 h and subsequently every 24 h as indicated. Cohorts were sacrificed for analysis immediately following IVIS imaging. […] Gray lines indicate tumor burden in PBS and sCAR-T cell—LCNT Fab controls. […] Data are represented as means±SEM, and statistical significance was calculated using the one-tailed student's t-test (C & D) where *=p<0.05, **=p<0.01 and ***=p<0.001.
NSG mice were inoculated with Nalm6^GFP/Luc and six days later engrafted with short-dimeric sCAR-T cells as described in FIG. 29. […] Dosing was carried out for 15 d starting at day 6 (corresponding with sCAR-T cell infusion) as indicated by gray shading. Control groups CART-19 and PBS received no switch. The NS group received sCAR-T cells but no switch. Open circles denote the death of individual mice without evidence of tumor burden and may reflect GVHD. Triangles in PBS, NS and q.a.d. group indicate death due to increasing tumor burden. […] (19) indicates CART-19. […] (19) indicates CART-19. […] Triangles indicate the death of individual mice with significant tumor burden. The single mouse death in the 0.05 mg/kg group occurred while tumor burden was decreasing. […] Statistical significance was calculated using the one-tailed student's t-test (B, C & E) where *=p<0.05, **=p<0.01 and ***=p<0.001.
The different sCAR designs were tested in a xenograft model harboring luciferized NALM-6 (CD19+, CD80−, CD86−) cells. 1 mg/kg monovalent switch “A” was administered along with sCAR cells. […] Optimized hinge improved response. Short hinge CARs have faster clearance. Short, dimeric hinge CARs have improved persistence. Tumor burden was visualized with IVIS imaging. Experiments are repeated with a humanized scFv and bivalent switches.
Activity of the switchable CAR-T cell platform in vivo was evaluated via tumor regression in a Nalm-6^Luc/GFP leukemia xenograft model in immunodeficient NOD scid gamma (NSG) mice. These mice without treatment succumb to disease within 21 days. The impact of CAR hinge design on in vivo efficacy was determined using mice inoculated with Nalm-6^Luc/GFP, followed by I.V. injection of long, short, or short-dimeric sCAR-T cells 6 days later. The LCNT Fab was dosed I.V. (0.5 mg/kg) every other day for 10 days and tumor regression was followed by in vivo imaging (IVIS) of the luciferase signal from Nalm-6^Luc/GFP cells (FIG. 29A).
The effect of switch grafting position on the control of tumor burden was determined. As with the previous model, short-dimeric CAR-T cells were injected 6 days after tumor inoculation and mice were treated every other day (starting at day 6) with 0.5 mg/kg LCNT, HCNT, NTBV, LCC1, or HCCT Fab switches (FIG. 29D).
To determine the proliferation and localization of sCAR-T cell cytotoxicity during this time interval, mice were sorted into 5 cohorts per treatment regimen and analyzed at 8, 24, 48, 72, and 96 h after treatment with short-dimeric sCAR-T cells+LCNT Fab switch or with conventional CART-19 and no switch. […]

[3] = tested on: RS4;11 cells; test: Cytokine release (CBA) in cytotoxicity co-culture; type: cell-based, human; conditions: 1 nM switch
Description: as §1
CAR-T or target cells were incubated with 1 pM to […] of switch in FACS buffer (PBS, 1% FCS, 2 mM EDTA) for 30 minutes at 4° C. before being washed twice and then incubated with the PE-conjugated goat-anti-human kappa antibody (1:100). Cells were washed two times and analyzed using the Accuri flow cytometer (BD). CAR-T cell activity was determined using the CytoTox 96® Non-Radioactive Cytotoxicity Assay (Promega). […]

[4] = tested on: CD33+ MOLM14 cells; test: Cytotoxicity assay, sCAR-T cells + anti-CD33 (hP67.6) switches; type: cell-based; set-up: unit not given here; conditions: duplicates
Description: (§2) FIG. 38A illustrates multiple fusion/grafting locations: A=LCNT1 (light chain N terminus version 1), B=HCNT3 (heavy chain N terminus version 3), C=heavy chain C terminus, and D=light chain C terminus). […] Data shown are an average of duplicate samples, and error bars represent SD. Only the NT switches plus the BvCT and By CH1CL1 as references are depicted.
(§3) Monovalent and bivalent combinations of these switches were expressed and tested in cytotoxicity assays at a dose titration within the range of 0.4 nM to 0.0001 nM. […] Data shown are an average of duplicate samples, and error bars represent SD. Only the NT switches plus the BvCT and By CH1CL1 as references are depicted. cytokine secretion was measured.

[5] = tested on: MOLM14 cell line; test: Cytokines in cytotoxicity assay supernatant (CBA Human Th1/Th2 II Kit); type: cell-based; set-up: unit not given here; conditions: duplicates
Description: as §2, §3

What does the source list for “anti-CD19 Fab HCCT: FMC63 anti-CD19 Fab, peptide on C-terminus of heavy chain (SEQ ID 27 & 34)”?
EC50 [1]: 20 ± 0.9 pM; tumor burden (IVIS), switch graft position comparison [2]: little control

“anti-CD19 Fab NTBV: FMC63 anti-CD19 Fab, peptide on N-terminus of light and heavy chain (SEQ ID 36 & 88)” was tested. Which “cytokine production” value ([3]; CD8 hinge sCAR-T) did it give?
The value was “induced the greatest cytokine production; also recorded: induced the greatest IL-2 production”.

What about the “increase in IL-2 production” value ([3]; CD8 sCAR-T cells) of the same molecule?
The value was 50%.

What about the “tumor burden (IVIS), switch graft position comparison” value [2] of the same molecule?
Its value is “greatest reduction in tumor burden”.

Which “cytotoxicity” value [1] does the source give for “anti-CD19 Fab WT: FMC63 anti-CD19 Fab with no grafted peptide (SEQ ID 27 & 29) [reference compound]” here?
Its value is “did not induce significant cytotoxicity”.

For “anti-CD19 IgG WT: FMC63 anti-CD19 IgG with no grafted peptide (SEQ ID 27 & 28) [reference compound]”, which “cytotoxicity” value [1] is on record?
The value was “did not induce significant cytotoxicity”.

B1: hP67.6 HCNT: anti-CD33 hP67.6 Fab, GCN4 on heavy chain N-terminus, rigid linker SEQ ID 45 (SEQ ID 231 & 220) (protein)
light: DIQLTQSPSTLSASVGDRVTITCRASESLDNYGIRFLTWFQQKPGKAPKLLMYAASNQGSGVPSRFSGSGSGTEFTLTISSLQPDDFATYYCQQTKEVPWSFGQGTKVEVKRTVAAPSVFIFPPSDEQLKSGTASVVCLLNNFYPREAKVQWKVDNALQSGNSQESVTEQDSKDSTYSLSSTLTLSKADYEKHKVYACEVTHQGLSSPVTKSFNRGEC
heavy: NYHLENEVARLKKLLVGEAAAKEAAAKAEVQLVQSGAEVKKPGSSVKVSCKASGYTITDSNIHWVRQAPGQSLEWIGYIYPYNGGTDYNQKFKNRATLTVDNPTNTAYMELSSLRSEDTAFYYCVNGNPWLAYWGQGTLVTVSSARTKGPSVFPLAPSSKSTSGGTAALGCLVKDYFPEPVTVSWNSGALTSGVHTFPAVLQSSGLYSLSSVVTVPSSSLGTQTYICNVNHKPSNTKVDKKVEPKSC
modifications: GCN4 on heavy chain N-terminus; Made in lab - CD33 (hP67.6) LCWT; Made in Lab - CD33 (hP67.6) HCNT1
How did the “cytotoxicity (FIG. 38G)” value ([4]; switch 0.1 pM) turn out when B1 was run?
The value was 0.

What about the “cytotoxicity (FIG. 38G)” value ([4]; switch 3.2 pM) of the same molecule?
The value was 10.3 and 8.3.

And the “cytotoxicity (FIG. 38G)” value ([4]; switch 16 pM)?
The value was 47.8 and 45.5.

What about the “cytotoxicity (FIG. 38G)” value ([4]; switch 80 pM) of the same molecule?
Its value is 65 and 64.4.

And the “cytotoxicity (FIG. 38G)” value ([4]; switch 400 pM)?
Its value is 69.4 and 70.2.

And the “IFNg in supernatant (FIG. 38H)” value [5]?
Its value is 1037.59 and 876.36.

And the “Il-2 in supernatant (FIG. 38H)” value [5]?
Its value is 861.13 and 653.

And the “TNFa in supernatant (FIG. 38H)” value [5]?
The value was 114.13 and 87.74.
